In patent US6784157B2, “Peptides and peptidomimetics with structural similarity to human p53 that activate p53 function” (Bayer Corporation, priority 1995, dated 2004):
Read-outs that look alike come from different tables or passages of the source. Each block holds one compound with its values, some of them ahead of it. Starred links: 1 amine or outer side, 2 acyl side, 3 side chain; linkers in the order of their positions; H or OH if unused. Non-standard residues stand in square brackets, D forms with d. Residues, ends and D or L forms follow the SMILES beside them. No end group written: not given here. X1 = O=C([C@H](CC1C=NC=N1)N[*:1])[*:2]

How the values were obtained:
human wild-type p53 = target: T1, human wild-type p53 (Homo sapiens, UniProt P04637); assay: p53 DNA binding assay: activation of DNA binding of wild-type p53; type: biochemical; details: for activation of binding of wild-type p53: peptide 0.4 mM; for potency in activating DNA binding relative to p53p373-383: 0.4 mM
T1 construct: Plasmid pGEMhump53wt encodes full-length human wild-type p53; made in house; host or cells: cell-free in vitro transcription and translation from pGEM4-based plasmid

p53 mutant His273 = target: T2, p53 mutant His273 (Homo sapiens, UniProt P04637, R273H); assay: p53 DNA binding assay: activation of DNA binding of mutant His273; type: biochemical; details: oligonucleotide BC
T2 construct: made in house; host or cells: cell-free in vitro transcription and translation from pGEMhump53His273
Experimental: (§1) The ability of the peptides of this invention to activate DNA binding of human p53 was assayed using a standard DNA binding assay for p53 [Halazonetis et al. (1993), cited above; Halazonetis and Kandil (1993), cited above]. This assay utilizes in vitro translated human wild-type p53 or tumor-derived p53 mutants and specific oligonucleotides containing p53 binding sites. These reagents and methods for preparing them are described below.
Plasmid pGEMhump53wt was used to generate plasmids encoding mutant p53 proteins frequently associated with human cancer. The mutations introduced are those that are most frequently associated with human tumors [Caron de Fromentel et al. (1992), Genes Chrom. Cancer, 4: 1-15]. […]
Plasmids of the pGEMhump53 series were used to produce in vitro transcribed mRNA and subsequently in vitro translated protein, according to standard procedures [Halazonetis et al. (1988), Cell, 55: 917-924]. […] Thus, the presence of slowly migrating DNA, which can be detected by autoradiography, indicates p53 DNA binding [Halazonetis et al. (1993), cited above; Halazonetis and Kandil (1993), cited above]. […]

oligonucleotide BC.V4A = assay: DNA binding assay of in vitro translated p53 deletion mutants (gel shift)
Experimental: as §1
Plasmids of the pGEMhump53 series were used to produce in vitro transcribed mRNA and subsequently in vitro translated protein, according to standard procedures [Halazonetis et al. (1988), Cell, 55: 917-924]. The in vitro translated proteins were assayed for DNA binding, as previously described [Halazonetis et al. (1993), cited above, and incorporated herein by reference]. Briefly the in vitro translated protein is incubated with a radioactively labeled oligonucleotide containing a p53 binding site in the presence of non-specific competitor DNA. The reaction mixture is incubated 20 min. at room temperature and directly loaded on a native 5% polyacrylamide electrophoresis gel. In this type of DNA binding assay free DNA migrates to the bottom of the gel, whereas p53/DNA complexes migrate more slowly. Thus, the presence of slowly migrating DNA, which can be detected by autoradiography, indicates p53 DNA binding [Halazonetis et al. (1993), cited above; Halazonetis and Kandil (1993), cited above].
As non-specific competitor DNAs we used 0.1 μg single-stranded oligonucleotide MI7 [[…], SEQ ID NO: 27] and 0.05 μg double-stranded oligonucleotide TF3 [[…], SEQ ID NO: 28] per reaction.
A number of double-stranded oligonucleotides containing p53 binding sites were radioactively labeled for these experiments. […] These three sites are indicated below, and the specific pentanucleotide repeats recognized by p53 are demarcated by hyphens. The sequence of oligonucleotide Ewaf1 (top strand) is: CCC-GAACA-TGTCC-CAACA-TGTTG-GGG [SEQ ID NO: 29]. […]

[1] = oligonucleotide Ewaf1, peptide 0.2-0.3 mM

Compound: Ser Lys Lys Gly Gln Ser Thr Ser Arg His Lys Lys Leu (SKKGQSTSRHKKL) [p53p371-383]
activation of DNA binding of wild-type p53 (human wild-type p53; oligonucleotide BC.V4A, peptide 0.2-0.4 mM): activated | DNA binding activity of p53His273 in presence of peptide (p53 mutant His273; peptide 0.4 mM): demonstrated DNA binding activity

Compound: Cys Gly Gly Ser Arg Ala His Ser Ser His Leu Lys Ser Lys Lys Gly Gln Ser Thr Ser Arg His Lys Lys Leu Met Phe Lys (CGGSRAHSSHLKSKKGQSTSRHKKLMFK; also: mixed with deletion peptides lacking Gly/Phe) [p53pC360-386]
activation of DNA binding of wild-type p53 (human wild-type p53; oligonucleotide BC.V4A, 0.02-0.2 mM peptide): activated | activation of DNA binding of wild-type p53 (human wild-type p53; oligonucleotide Ewaf1, concentration not given): activated | DNA binding activity of p53His273 in presence of peptide (p53 mutant His273; peptide 0.2 mM): demonstrated DNA binding activity

Compound: p53D356-393: human wild-type p53 with deletion of residues 356-393, in vitro translated
Binding of Mutant p53 to BC.V4A DNA (oligonucleotide BC.V4A): activated

Compound: C[C@H]1NC(=O)[C@H](CCCCN)NC(=O)[C@H](CCCCN)NC(=O)[C@H](CC2C=NC=N2)NC(=O)[C@H](CCCNC(=N)N)NC(=O)[C@H](CO)NC1=O (some centres unmarked) [c[SRHKKa]] (cyclo(KK[dA]SR[X1]))
efficiency of activation of p53 DNA binding relative to 0.05 mM peptide p53p363-373 (human wild-type p53; peptide 0.1 mM, assay of Example 2, p53 form and oligonucleotide not stated): about two times more efficiently

Compound: p53D364-393: human wild-type p53 with deletion of residues 364-393, in vitro translated
Binding of Mutant p53 to BC.V4A DNA (oligonucleotide BC.V4A): activated | Binding of Mutant p53 to BC.V4A DNA (oligonucleotide BC.V4A; listed as pGEMhump53D364-393): activates DNA binding

More lines, now with the values ahead:

activation of DNA binding of wild-type p53 (human wild-type p53; [1]): activated
Compound: Arg Ala His Ser Ser His Leu Lys Ser Lys Lys Gly Gln Ser Thr Ser Arg His Lys Lys Leu Met Phe Lys (Ac-RAHSSHLKSKKGQSTSRHKKLMFK-NH2) [p53p363-386]

activation of DNA binding of wild-type p53 (human wild-type p53; [1]): activated
Compound: Ser His Leu Lys Ser Lys Lys Gly Gln Ser Thr Ser Arg His Lys Lys Leu Met Phe Lys (Ac-SHLKSKKGQSTSRHKKLMFK-NH2) [p53p367-386]

activation of DNA binding of wild-type p53 (human wild-type p53; [1]): activated
Compound: Ser Arg Ala His Ser Ser His Leu Lys Ser Lys Lys Gly Gln Ser Thr Ser Arg His Lys Lys Leu Met Phe Lys (Ac-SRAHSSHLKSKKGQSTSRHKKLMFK-NH2) [p53p362-386]

activation of binding of wild-type p53 (human wild-type p53; oligonucleotide Ewaf1): activated
Compound: Lys Gly Gln Ser Thr Ser Arg His Lys Lys Leu (Ac-KGQSTSRHKKL-NH2) [p53p373-383]

potency in activating DNA binding relative to p53p373-383 (human wild-type p53; oligonucleotide Ewaf1): somewhat more potent | activation of binding of wild-type p53 (human wild-type p53; oligonucleotide Ewaf1): activated
Compound: Arg Ala His Ser Ser His Leu Lys Ser Lys Lys (Ac-RAHSSHLKSKK-NH2) [p53p363-373]

potency in activating DNA binding relative to p53p373-383 (human wild-type p53; oligonucleotide Ewaf1): somewhat more potent | activation of binding of wild-type p53 (human wild-type p53; oligonucleotide Ewaf1): activated
Compound: His Leu Lys Ser Lys Lys Gly Gln Ser Thr Ser Arg His (Ac-HLKSKKGQSTSRH-NH2) [p53p368-380]
